Target: p-ERK1/2 (Thr202/Tyr204)
Assay: co-IP (IP: Flag, IB: p-ERK1/2), band intensity quantified in bar chart
Conditions: whole-cell extracts from MCF-7C5RN cells; without CGP57380; parent: est. 0.24; read off a plot

response: 0.11
Substance: Flag-WTAP (wild type) (from UniProt Q15007) S341A
